# From patent US20230008694
# Key:
# Assay in all cases: cell_activity
# [1] = test system: GmFAD2_T01-L1 half-TALEN (synthetic (TAL effector-FokI)); conditions: pair with T01-R1 at FAD2-1A (FAD2-1B 3.41); soybean protoplasts
# [2] = test system: GmFAD2_T03-L1 half-TALEN (synthetic (TAL effector-FokI)); conditions: pair with T03-R1 at FAD2-1A (FAD2-1B 3.94)
# [3] = test system: GmFAD2_T04-L1 half-TALEN (synthetic (TAL effector-FokI)); conditions: pair with T04-R1 at FAD2-1A (FAD2-1B 3.54)
# [4] = test system: GmFAD2_T02-L1 half-TALEN (synthetic (TAL effector-FokI)); conditions: pair with T02-R1 at FAD2-1A (FAD2-1B 1.19)
# [5] = test system: GmFAD2_T03-R1 half-TALEN (synthetic (TAL effector-FokI)); conditions: pair with T03-L1 at FAD2-1A (FAD2-1B 3.94)
# [6] = test system: GmFAD3_T08-L1 half-TALEN (synthetic (TAL effector-FokI))
# [7] = test system: GmFAD3_T09-L1 half-TALEN (synthetic (TAL effector-FokI))
# [8] = test system: GmFAD3_T08-R1 half-TALEN (synthetic (TAL effector-FokI))
# [9] = test system: GmFAD3_T09-R1 half-TALEN (synthetic (TAL effector-FokI))
# [10] = test system: GmFAD2_T04-R1 half-TALEN (synthetic (TAL effector-FokI)); conditions: pair with T04-L1 at FAD2-1A (FAD2-1B 3.54)
# [11] = test system: GmFAD2_T02-R1 half-TALEN (synthetic (TAL effector-FokI)); conditions: pair with T02-L1 at FAD2-1A (FAD2-1B 1.19)
# [12] = test system: GmFAD2_T01-R1 half-TALEN (synthetic (TAL effector-FokI)); conditions: pair with T01-L1 at FAD2-1A (FAD2-1B 3.41)
sequence,measurement,setting,value
TCTCAAGGGTTCCAAAC (double strand) [GmFAD2_T01-L1 half-site],activity,[1],3.95 % NHEJ
TCCTATGTTGTTTATGA (double strand) [GmFAD2_T03-L1 half-site],activity,[2],4.91 % NHEJ
TTGTTTATGACCTTTCA (double strand) [GmFAD2_T04-L1 half-site],activity,[3],4.67 % NHEJ
TATGTTGTTTATGACCT (double strand) [GmFAD2_T02-L1 half-site],activity,[4],0.91 % NHEJ
TGGCAATGTAGAAAATG (double strand) [GmFAD2_T03-R1 half-site],activity,[5],4.91 % NHEJ
TTAGCCACAGAACTCAC (double strand) [GmFAD3_T08-L1 half-site],activity,"[6]; pair with T08-R1 at FAD3A (FAD3B 14.57), soybean protoplasts 48 h",22.9 % NHEJ
same,activity,"[7]; pair with T08-R1 at FAD3A (FAD3B 11.17), mismatched left half-site",12.4 % NHEJ
CACATTGAGAAGGATGA (double strand) [GmFAD3_T08-R1 half-site],activity,"[8]; pair with T08-L1 at FAD3A (FAD3B 14.57), with T09-L1 12.37 at FAD3A, 11.17 at FAD3B",22.9 % NHEJ
same,activity,"[9]; pair with T08-L1 at FAD3A (FAD3B 1.80), mismatched right half-site, with T09-L1 6.46 (FAD3B 3.61)",6.56 % NHEJ
TTAGCCACAGGACTCAC (double strand) [GmFAD3_T09-L1 half-site],activity,"[6]; pair with T09-R1 at FAD3C, mismatched left half-site, with T08-R1 3.59",7.6 % NHEJ
same,activity,"[7]; pair with T09-R1 at FAD3C, multiplex T09-L1/T08-R1/T09-R1 21.42 (Table 2)",11.3 % NHEJ
CATGTTGAGAAGGATGA (double strand) [GmFAD3_T09-R1 half-site],activity,"[8]; pair with T09-L1 at FAD3C, mismatched right half-site, with T08-L1 3.59",5.98 % NHEJ
same,activity,"[9]; pair with T09-L1 at FAD3C, with T08-L1 7.60",11.3 % NHEJ
TAGGTGGTGGCAATGTA (double strand) [GmFAD2_T04-R1 half-site],activity,[10],4.67 % NHEJ
TGGTGGCAATGTAGAAA (double strand) [GmFAD2_T02-R1 half-site],activity,[11],0.91 % NHEJ
TTGAGTTGGCCAACAGT (double strand) [GmFAD2_T01-R1 half-site],activity,[12],3.95 % NHEJ
